# Data taken from IntAct's records for PubMed 23503662.
# B1: F-box/LRR-repeat protein 3 (Homo sapiens), Q9UKT7 (parent)
# chain: MKRGGRDSDRNSSEEGTAEKSKKLRTTNEHSQTCDWGNLLQDIILQVFKYLPLLDRAHASQVCRNWNQVFHMPDLWRCFEFELNQPATSYLKATHPELIKQIIKRHSNHLQYVSFKVDSSKESAEAACDILSQLVNCSLKTLGLISTARPSFMDLPKSHFISALTVVFVNSKSLSSLKIDDTPVDDPSLKVLVANNSDTLKLLKMSSCPHVSPAGILCVADQCHGLRELALNYHLLSDELLLALSSEKHVRLEHLRIDVVSENPGQTHFHTIQKSSWDAFIRHSPKVNLVMYFFLYEEEFDPFFRYEIPATHLYFGRSVSKDVLGRVGMTCPRLVELVVCANGLRPLDEELIRIAERCKNLSAIGLGECEVSCSAFVEFVKMCGGRLSQLSIMEEVLIPDQKYSLEQIHWEVSKHLGRVWFPDMMPTW
# partner: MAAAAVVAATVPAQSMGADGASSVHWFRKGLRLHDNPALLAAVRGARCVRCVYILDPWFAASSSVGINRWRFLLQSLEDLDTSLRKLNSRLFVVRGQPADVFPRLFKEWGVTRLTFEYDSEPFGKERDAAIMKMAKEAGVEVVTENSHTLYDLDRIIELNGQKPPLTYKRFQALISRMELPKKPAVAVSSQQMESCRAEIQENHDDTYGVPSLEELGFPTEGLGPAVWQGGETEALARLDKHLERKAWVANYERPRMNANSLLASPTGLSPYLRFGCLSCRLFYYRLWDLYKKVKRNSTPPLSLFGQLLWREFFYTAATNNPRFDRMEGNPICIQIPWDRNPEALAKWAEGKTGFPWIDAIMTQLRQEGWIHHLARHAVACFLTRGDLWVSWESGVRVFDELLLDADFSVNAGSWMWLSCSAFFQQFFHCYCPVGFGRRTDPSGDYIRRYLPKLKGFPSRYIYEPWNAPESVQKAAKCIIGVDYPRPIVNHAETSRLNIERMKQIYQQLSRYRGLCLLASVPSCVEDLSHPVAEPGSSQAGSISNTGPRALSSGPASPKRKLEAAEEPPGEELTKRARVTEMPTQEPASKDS
# B2: Cryptochrome-2 (Mus musculus), Q9R194 (parent)
# chain: B1 partner
# Variants of: B1
# Conditions: with cry2_mouse Cry2, Q9R194
row,effect of a mutation on the interaction,Variant
1,disrupting interaction strength,MKRGGRDSDRNSSEEGTAEKSKKLRTTNEHSQTCDWGNLLQDIILQVFKYLPLLDRAHASQVCRNWNQVFHMPDLWRCFEFELNQPATSYLKATHPELIKQIIKRHSNHLQYVSFKVDSSKESAEAACDILSQLVNCSLKTLGLISTARPSFMDLPKSHFISALTVVFVNSKSLSSLKIDDTPVDDPSLKVLVANNSDTLKLLKMSSCPHVSPAGILCVADQCHGLRELALNYHLLSDELLLALSSEKHVRLEHLRIDVVSENPGQTHFHTIQKSSWDAFIRHSPKVNLVMYFFLYEEEFDPFFRYEIPATHLYFGRSVSKDVLGRVGMTCPRLVELVVCANGLRPLDEELIRIAERCKNLSAIGLGECEVSCSAFVEFVKMCGGRLSQLSIMEEVLIPDQKYSLEQIHWEVSKHLGRVWFPDMMATW [P426A]
2,disrupting interaction strength,MKRGGRDSDRNSSEEGTAEKSKKLRTTNEHSQTCDWGNLLQDIILQVFKYLPLLDRAHASQVCRNWNQVFHMPDLWRCFEFELNQPATSYLKATHPELIKQIIKRHSNHLQYVSFKVDSSKESAEAACDILSQLVNCSLKTLGLISTARPSFMDLPKSHFISALTVVFVNSKSLSSLKIDDTPVDDPSLKVLVANNSDTLKLLKMSSCPHVSPAGILCVADQCHGLRELALNYHLLSDELLLALSSEKHVRLEHLRIDVVSENPGQTHFHTIQKSSWDAFIRHSPKVNLVMYFFLYEEEFDPFFRYEIPATHLAFGRSVSKDVLGRVGMTCPRLVELVVCANGLRPLDEELIRIAERCKNLSAIGLGECEVSCSAFVEFVKMCGGRLSQLSIMEEVLIPDQKYSLEQIHWEVSKHLGRVWFPDMMPTW [Y314A]
3,decreasing interaction strength,MKRGGRDSDRNSSEEGTAEKSKKLRTTNEHSQTCDWGNLLQDIILQVFKYLPLLDRAHASQVCRNWNQVFHMPDLWRCFEFELNQPATSYLKATHPELIKQIIKRHSNHLQYVSFKVDSSKESAEAACDILSQLVNCSLKTLGLISTARPSFMDLPKSHFISALTVVFVNSKSLSSLKIDDTPVDDPSLKVLVANNSDTLKLLKMSSCPHVSPAGILCVADQCHGLRELALNYHLLSDELLLALSSEKHVRLEHLRIDVVSENPGQTHFHTIQKSSWDAFIRHSPKVNLVMAFFLYEEEFDPFFRYEIPATHLYFGRSVSKDVLGRVGMTCPRLVELVVCANGLRPLDEELIRIAERCKNLSAIGLGECEVSCSAFVEFVKMCGGRLSQLSIMEEVLIPDQKYSLEQIHWEVSKHLGRVWFPDMMPTW [Y292A]
4,decreasing interaction strength,MKRGGRDSDRNSSEEGTAEKSKKLRTTNEHSQTCDWGNLLQDIILQVFKYLPLLDRAHASQVCRNWNQVFHMPDLWRCFEFELNQPATSYLKATHPELIKQIIKRHSNHLQYVSFKVDSSKESAEAACDILSQLVNCSLKTLGLISTARPSFMDLPKSHFISALTVVFVNSKSLSSLKIDDTPVDDPSLKVLVANNSDTLKLLKMSSCPHVSPAGILCVADQCHGLRELALNYHLLSDELLLALSSEKHVRLEHLRIDVVSENPGQTHFHTIQKSSWDAFIRHSPKVNLVMYFFLYEEEFDPFFRYEIPATHLYFGRSVSKDVLGRVGMTCPRLVELVVCANGLRPLDEELIRIAERCKNLSAIGLGECEVSCSAFVEFVKMCGGRLSQLSIMEEVLIPDQKYSLEQIHWEVSKHLGRVWFPDMMPTA [W428A]
5,disrupting interaction strength,MKRGGRDSDRNSSEEGTAEKSKKLRTTNEHSQTCDWGNLLQDIILQVFKYLPLLDRAHASQVCRNWNQVFHMPDLWRCFEFELNQPATSYLKATHPELIKQIIKRHSNHLQYVSFKVDSSKESAEAACDILSQLVNCSLKTLGLISTARPSFMDLPKSHFISALTVVFVNSKSLSSLKIDDTPVDDPSLKVLVANNSDTLKLLKMSSCPHVSPAGILCVADQCHGLRELALNYHLLSDELLLALSSEKHVRLEHLRIDVVSENPGQTHFHTIQKSSWDAFIRHSPKVNLVMYFFLYEEEFDPFFRYEIPATHLYFGRSVSKDVLGRVGMTCPRLVALVVCANGLRPLDEELIRIAERCKNLSAIGLGECEVSCSAFVEFVKMCGGRLSQLSIMEEVLIPDQKYSLEQIHWEVSKHLGRVWFPDMMPTW [E336A]

# Variants of: B2
# Conditions: with per1_human PER1, O15534
# Sequence of per1_human PER1, O15534 (O15534 whole entry): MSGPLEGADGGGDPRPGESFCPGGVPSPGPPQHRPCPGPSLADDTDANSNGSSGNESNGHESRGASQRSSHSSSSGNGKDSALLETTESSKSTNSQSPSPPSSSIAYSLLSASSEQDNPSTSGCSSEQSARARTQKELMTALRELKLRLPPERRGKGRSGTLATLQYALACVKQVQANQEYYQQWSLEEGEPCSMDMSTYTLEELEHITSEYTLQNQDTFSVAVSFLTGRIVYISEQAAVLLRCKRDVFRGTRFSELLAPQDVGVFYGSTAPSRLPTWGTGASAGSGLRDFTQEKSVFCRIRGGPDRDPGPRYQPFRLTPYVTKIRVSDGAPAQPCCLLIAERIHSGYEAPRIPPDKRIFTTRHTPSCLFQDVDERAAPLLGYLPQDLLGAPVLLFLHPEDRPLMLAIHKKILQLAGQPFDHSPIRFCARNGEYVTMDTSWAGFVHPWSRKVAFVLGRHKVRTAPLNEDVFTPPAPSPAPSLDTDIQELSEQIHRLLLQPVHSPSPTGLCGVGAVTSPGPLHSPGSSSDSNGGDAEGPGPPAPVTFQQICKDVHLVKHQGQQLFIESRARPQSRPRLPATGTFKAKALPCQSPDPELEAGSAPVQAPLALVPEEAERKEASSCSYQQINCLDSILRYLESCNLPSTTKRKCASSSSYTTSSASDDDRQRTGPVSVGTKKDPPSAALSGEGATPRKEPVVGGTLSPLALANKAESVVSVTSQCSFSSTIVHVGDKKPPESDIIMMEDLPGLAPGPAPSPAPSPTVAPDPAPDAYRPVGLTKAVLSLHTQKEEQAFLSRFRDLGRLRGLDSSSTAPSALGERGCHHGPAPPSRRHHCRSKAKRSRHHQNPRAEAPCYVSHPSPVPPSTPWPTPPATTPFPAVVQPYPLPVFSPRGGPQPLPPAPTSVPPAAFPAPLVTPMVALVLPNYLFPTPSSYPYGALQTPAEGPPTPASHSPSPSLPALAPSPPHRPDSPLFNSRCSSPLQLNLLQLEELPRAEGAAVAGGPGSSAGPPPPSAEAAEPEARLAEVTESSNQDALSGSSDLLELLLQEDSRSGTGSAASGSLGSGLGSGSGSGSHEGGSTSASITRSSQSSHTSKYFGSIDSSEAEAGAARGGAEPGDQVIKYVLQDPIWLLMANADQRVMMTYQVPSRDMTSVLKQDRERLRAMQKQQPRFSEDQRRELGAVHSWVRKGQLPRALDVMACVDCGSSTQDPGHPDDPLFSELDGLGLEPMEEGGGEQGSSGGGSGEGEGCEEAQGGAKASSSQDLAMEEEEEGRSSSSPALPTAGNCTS
row,effect of a mutation on the interaction,Variant
1,disrupting interaction strength,MAAAAVVAATVPAQSMGADGASSVHWFRKGLRLHDNPALLAAVRGARCVRCVYILDPWFAASSSVGINRWRFLLQSLEDLDTSLRKLNSRLFVVRGQPADVFPRLFKEWGVTRLTFEYDSEPFGKERDAAIMKMAKEAGVEVVTENSHTLYDLDRIIELNGQKPPLTYKRFQALISRMELPKKPAVAVSSQQMESCRAEIQENHDDTYGVPSLEELGFPTEGLGPAVWQGGETEALARLDKHLERKAWVANYERPRMNANSLLASPTGLSPYLRFGCLSCRLFYYRLWDLYKKVKRNSTPPLSLFGQLLWREFFYTAATNNPRFDRMEGNPICIQIPWRRNPEALAKWAEGKTGFPWIDAIMTQLRQEGWIHHLARHAVACFLTRGDLWVSWESGVRVFDELLLDADFSVNAGSWMWLSCSAFFQQFFHCYCPVGFGRRTDPSGDYIRRYLPKLKGFPSRYIYEPWNAPESVQKAAKCIIGVDYPRPIVNHAETSRLNIERMKQIYQQLSRYRGLCLLASVPSCVEDLSHPVAEPGSSQAGSISNTGPRALSSGPASPKRKLEAAEEPPGEELTKRARVTEMPTQEPASKDS [D339R]
